What was measured:
[1] = target: AvmM (Streptomyces sp. TP-A0867); assay: SEC; HiLoad 16/600 Superdex 200 pg, 50 mM NaCl, 20 mM Tris pH 8.0, 4 °C, 1 mL/min; calibrated with cytochrome c, ovalbumin, aldolase, ferritin
[2] = target: AvmM (Streptomyces sp. TP-A0867); assay: crystal structure; sitting drop, 22 °C; protein 10 mg/mL in 50 mM NaCl, 20 mM Tris pH 8.0; reservoir 0.2 M magnesium acetate, 0.1 M sodium cacodylate pH 6.5, 20% PEG 8000; apo AvmM at 2.09 Å and AvmM with product 2 at 2.5 Å

AvmM (enzyme)
stoichiometry N [1]: 3
stoichiometry N [2]: 3
